Experimental findings from the supplement of paper PMC7877785 are described below.

This series in a line: self-splicing fitness, log relative to wild type (ln ratio); higher = more splicing; Tetrahymena group I intron in knt gene, E. coli kanamycin selection, DiMSum; sequences stand for … in CUCUCU…GGAGGGAAAAGUUAUCAGGCAUGCACCUGGUAGCUAGUCUUUAAACCAAUAGAUUGCAUCGGUUUAAAAGGCAAGACCGUCAAAUUGCGGGAAAGGGGUCAACAGCCGUUCAGUACCAAGUCUCAGGGGAAACUUUGAGAUGGCCUUGCAAAGGGUAUGGUAAUAAGCUGACGGACAUGGUCCUAACCACGCAGCCAAGUCCUAAGUCAACAGAUCUUCUGUUGAUAUGGAUGCAGUUCACAGACUAAAUGUCGGUCGGGGAAGAUGUAUUCUUCUCAUAAGAUAUAGUCGGACCUCUCCUUAAUGGGAGCUAGCGGAUGAAGUGAUGCAACACUGGAGCCGCUGGGAACUAAUUUGUAUGCGAAAGUAUAUUGAUUAGUUUUGGAGUACUCGUGGUCG
The procedure, abridged: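 Colonies from six replicate transformations of E. coli BL21(DE3) were pooled and amplicon-sequenced on an Illumina HiSeq 2500. The library placed an intron with all eight P1ex-region nucleotides randomised inside the knt kanamycin-resistance gene on pET-22b(+), and cells grew overnight at 37°C or 30°C on LB agar with or without 25 μg/mL kanamycin (plus 100 μg/mL carbenicillin, 50 μM IPTG, 0.2% rhamnose). Fitness is the DiMSum error-weighted combination of wild-type-normalised replicate fold changes, kanamycin versus none.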

± gives the uncertainty stated by the source.

For the sequence ACGCAGCAAUAUUACGGGCA, the “self-splicing fitness (ln)” value is, setting by setting: (30 °C) -1.08 ± 0.081; (37 °C) -0.293 ± 0.094.
Turning to ACGCAGCAAUAUUACGGUAG, the “self-splicing fitness (ln)” value (30 °C) was -3.56 ± 0.17 and the “self-splicing fitness (ln)” value (37 °C) is -2.94 ± 0.19.
On the same counts, the results for ACGCAGCAAUAUUACGGUCU are -0.587 ± 0.049 and 0.0141 ± 0.056.
For the sequence ACGCAGCAAUAUUACGGUUU, the “self-splicing fitness (ln)” value runs as follows: (30 °C) -0.937 ± 0.054; (37 °C) -0.076 ± 0.083.
The like results for ACGCAGCAAUAUUACGUCGC were, in that order, -1.16 ± 0.12 and -2.45 ± 0.22.
With ACGCAGCAAUAUUACGUGAG, the “self-splicing fitness (ln)” value was -1.19 ± 0.056 (30 °C) and -0.552 ± 0.07 (37 °C).
For ACGCAGCAAUAUUACGUGAU, the “self-splicing fitness (ln)” value was -1.78 ± 0.039 (30 °C) and -0.783 ± 0.055 (37 °C).
With ACGCAGCAAUAUUACGUGGA, the “self-splicing fitness (ln)” value is, setting by setting: (30 °C) -3.14 ± 0.14; (37 °C) -2.37 ± 0.14.
Regarding ACGCAGCAAUAUUACGUGGC, the “self-splicing fitness (ln)” value is, setting by setting: (30 °C) -2.88 ± 0.14; (37 °C) -2.26 ± 0.17.
The like results for ACGCAGCAAUAUUACGUUGC were, in that order, -2.7 ± 0.1 and -2.75 ± 0.16.
For the sequence ACGGAGCAAUAUUACGAAGG, the “self-splicing fitness (ln)” value is, setting by setting: (30 °C) -3.68 ± 0.21; (37 °C) -2.7 ± 0.27.
On the same counts, the results for ACGGAGCAAUAUUACGACAG are -2.34 ± 0.26 and -2.62 ± 0.34.
The like results for ACGGAGCAAUAUUACGACCA were, in that order, -3.73 ± 0.4 and -1.08 ± 0.24.
The like results for ACGGAGCAAUAUUACGACGA were, in that order, -1.49 ± 0.1 and -0.442 ± 0.13.
As to ACGGAGCAAUAUUACGACGU, the “self-splicing fitness (ln)” value is, setting by setting: (30 °C) -2.27 ± 0.17; (37 °C) -1.56 ± 0.23.
On the same counts, the results for ACGGAGCAAUAUUACGAGAG are -2.06 ± 0.34 and -2.22 ± 0.45.
In the case of ACGGAGCAAUAUUACGAGUG, the “self-splicing fitness (ln)” value (37 °C) is -2.8 ± 0.38.
In the case of ACGGAGCAAUAUUACGCAAU, the “self-splicing fitness (ln)” value is -2.81 ± 0.24 (30 °C) and -3.02 ± 0.43 (37 °C).
On the same counts, the results for ACGGAGCAAUAUUACGCCAG are -4.18 ± 0.43 and -1.11 ± 0.39.
As for ACGGAGCAAUAUUACGCGAC, the “self-splicing fitness (ln)” value runs as follows: (30 °C) -2.45 ± 0.21; (37 °C) -2.55 ± 0.41.
On the same counts, the results for ACGGAGCAAUAUUACGCUUA are -2.71 ± 0.17 and -1.03 ± 0.11.
For ACGGAGCAAUAUUACGCUUC, the “self-splicing fitness (ln)” value runs as follows: (30 °C) -2.92 ± 0.21; (37 °C) -2.81 ± 0.23.
The like results for ACGGAGCAAUAUUACGCUUU were, in that order, -4.74 ± 0.38 and -1.98 ± 0.17.
Take ACGGAGCAAUAUUACGGAGC: the “self-splicing fitness (ln)” value (30 °C) was -1.67 ± 0.34.
Consider ACGGAGCAAUAUUACGGGAU, for which the “self-splicing fitness (ln)” value is -1.84 ± 0.14 (30 °C) and -1.83 ± 0.2 (37 °C).
Take ACGGAGCAAUAUUACGGGGG: the “self-splicing fitness (ln)” value (37 °C) was -1.58 ± 0.29.
As for ACGGAGCAAUAUUACGUCUC, the “self-splicing fitness (ln)” value is, setting by setting: (30 °C) -4.93 ± 0.32; (37 °C) -1.94 ± 0.15.
In the case of ACGGAGCAAUAUUACGUUAG, the “self-splicing fitness (ln)” value reads like this: (30 °C) -2.74 ± 0.18; (37 °C) -2.5 ± 0.33.
The like results for ACGGAGCAAUAUUACGUUCA were, in that order, -1.94 ± 0.18 and -0.749 ± 0.13.
On the same counts, the results for ACGUAGCAAUAUUACGAAAA are -2.5 ± 0.21 and -1.58 ± 0.19.
The like results for ACGUAGCAAUAUUACGAAUC were, in that order, -4.01 ± 0.3 and -2.74 ± 0.3.
As for ACGUAGCAAUAUUACGAAUU, the “self-splicing fitness (ln)” value was -1.42 ± 0.087 (30 °C) and -0.778 ± 0.11 (37 °C).
In the case of ACGUAGCAAUAUUACGAGAU, the “self-splicing fitness (ln)” value reads like this: (30 °C) -2.82 ± 0.14; (37 °C) -2.23 ± 0.19.
The like results for ACGUAGCAAUAUUACGAGUA were, in that order, -3.15 ± 0.21 and -1.07 ± 0.12.
The like results for ACGUAGCAAUAUUACGAGUU were, in that order, -4.04 ± 0.17 and -1.3 ± 0.13.
On the same counts, the results for ACGUAGCAAUAUUACGAUCU are -0.0721 ± 0.051 and 0.356 ± 0.065.
ACGUAGCAAUAUUACGAUGA: the “self-splicing fitness (ln)” value (30 °C) is -0.81 ± 0.091 and the “self-splicing fitness (ln)” value (37 °C) was -0.268 ± 0.11.
The like results for ACGUAGCAAUAUUACGCCCG were, in that order, -0.224 ± 0.13 and -0.474 ± 0.17.
On the same counts, the results for ACGUAGCAAUAUUACGCGAA are -1.46 ± 0.16 and -0.935 ± 0.18.
Regarding ACGUAGCAAUAUUACGCUAU, the “self-splicing fitness (ln)” value (30 °C) is -4.59 ± 0.34 and the “self-splicing fitness (ln)” value (37 °C) is -3.11 ± 0.35.
The like results for ACGUAGCAAUAUUACGGAGU were, in that order, -3.1 ± 0.1 and -1.18 ± 0.079.
The like results for ACGUAGCAAUAUUACGGAUA were, in that order, -2.48 ± 0.15 and -0.584 ± 0.11.
The like results for ACGUAGCAAUAUUACGGCAA were, in that order, -1.49 ± 0.1 and -1.15 ± 0.09.
Turning to ACGUAGCAAUAUUACGGCCU, the “self-splicing fitness (ln)” value is -0.463 ± 0.12 (30 °C) and 0.149 ± 0.13 (37 °C).
As for ACGUAGCAAUAUUACGGGCC, the “self-splicing fitness (ln)” value is -2.66 ± 0.14 (30 °C) and -0.629 ± 0.12 (37 °C).
Turning to ACGUAGCAAUAUUACGGGCG, the “self-splicing fitness (ln)” value was -0.566 ± 0.19 (30 °C) and -1.07 ± 0.19 (37 °C).
The like results for ACGUAGCAAUAUUACGGUAG were, in that order, -3.11 ± 0.15 and -2.25 ± 0.2.
On the same counts, the results for ACGUAGCAAUAUUACGUAAA are -3.11 ± 0.28 and -0.404 ± 0.19.
On the same counts, the results for ACGUAGCAAUAUUACGUAGG are -3.76 ± 0.18 and -1.73 ± 0.13.
As for ACGUAGCAAUAUUACGUCAU, the “self-splicing fitness (ln)” value was -2.12 ± 0.17 (30 °C) and -2.4 ± 0.3 (37 °C).
In the case of ACGUAGCAAUAUUACGUUAA, the “self-splicing fitness (ln)” value was -3.53 ± 0.25 (30 °C) and -2.58 ± 0.2 (37 °C).
The like results for ACGUAGCAAUAUUACGUUAC were, in that order, -3.3 ± 0.23 and -2.83 ± 0.26.
Consider ACGUAGCAAUAUUACGUUCA, for which the “self-splicing fitness (ln)” value is -2.31 ± 0.13 (30 °C) and -0.777 ± 0.12 (37 °C).
For the sequence ACUAAGCAAUAUUACGAAGA, the “self-splicing fitness (ln)” value (30 °C) is -1.65 ± 0.17 and the “self-splicing fitness (ln)” value (37 °C) is -1.29 ± 0.18.
On the same counts, the results for ACUAAGCAAUAUUACGACAU are -0.431 ± 0.011 and -0.0773 ± 0.032.
With ACUAAGCAAUAUUACGAGCU, the “self-splicing fitness (ln)” value is, setting by setting: (30 °C) -0.626 ± 0.079; (37 °C) -0.478 ± 0.087.
The like results for ACUAAGCAAUAUUACGAUUC were, in that order, -2.12 ± 0.091 and -0.397 ± 0.11.
On the same counts, the results for ACUAAGCAAUAUUACGCACU are -0.0279 ± 0.082 and -0.417 ± 0.08.
On the same counts, the results for ACUAAGCAAUAUUACGCUGC are -2.57 ± 0.15 and -2.17 ± 0.14.
Take ACUAAGCAAUAUUACGCUGG: the “self-splicing fitness (ln)” value reads like this: (30 °C) -2.82 ± 0.19; (37 °C) -2.93 ± 0.31.
